Assay results taken from patent US20240083996A1, “COMPOSITION FOR PROPHYLAXIS OR TREATMENT OF IL-8 RELATED DISEASES” (Chugai Seiyaku Kabushiki Kaisha, priority 2016, published 2024).

Experiments:
post-surgical adhesion = assay: Post-surgical adhesion-induced monkey model; type: in vivo, cynomolgus monkeys; set-up: key: ○: Adhesion found; x: No adhesion; conditions: 10 mg/kg i.v. one hour or less after surgery, laparoscopy 24 to 35 days later; individuals #201, #206
Protocol: To prepare a post-surgical adhesion-induced model, female cynomolgus monkeys 9 to 16 years of age (provided by the Tsukuba Primate Research Center at the National Institutes of Biomedical Innovation, Health and Nutrition) were treated under anesthesia as follows. Anesthesia was performed using balanced anesthesia of ketamine/xylazine (mixed at an adequate ratio of about 2:1) and isoflurane. An incision of 5 to 6 cm was made in the median line of the abdominal wall. After opening the abdomen, a 1-cm incision was made on the uterine corpus and sutured with 4 stitches using a single suture. Then, the whole uterus was brushed five times with gauze. Next, a 1-cm incision was made to the right abdominal wall peritoneal part at 2 cm from the incised median line of the abdominal wall and sutured by running suture with 4 stitches using an absorbable suture. After suture, the sutured part was brushed five times with gauze. Likewise, the peritoneum of left abdominal wall was incised, sutured, and brushed with gauze. Finally, the median line of abdominal wall was sutured by running suture with 10 to 11 stitches. The entire steps were completed in one hour or less. The antagonist Antisedan (in roughly the same amount as that of xylazine) and the antibiotic cephradine were administered at the time of awakening after surgery. Then, the pain reliever Zalban was administered for two days after surgery, and the monkeys were observed regularly every day to confirm the absence of post-surgical abnormalities. At laparoscopic observation, anesthesia and post-surgical monitoring were also performed in the same way.
The control group was untreated. 24 to 35 days after administration of the anti-IL-8 antibody, laparoscopy was performed to observe the adhesion formed due to incision, suture, and blushing with gauze. The abdomen was incised in the median line under anesthesia, and laparoscopic observation was performed by inserting a trocar and then introducing a laparoscope. The laparoscope was connected to a video system (KARL STORZ) and a monitor. The video system was used for recording, and the monitor was used for intraperitoneal observation. The size of the adhesion was measured using a graduated bar or graduated forceps. The presence, range, and location of adhesion were assessed during laparoscopic observation. […] Although adhesion was found in individual No. 206 in the anti-IL-8 antibody administration group, no adhesion was found in the right and left abdominal wall peritoneum or at the uterine incision site in individual No. 201. […] Those skilled in the art will naturally appreciate that anti-IL-8 antibodies may exert a stronger adhesion formation-preventive effect by appropriately altering the timing of administration or such. […]

[1] = test system: soluble forms of FcγRIa and FcγRIIIa in human and cynomolgus monkey; assay: Binding to various FcγRs (BIACORE T200); conditions: 20° C., HBS-EP+ (FIG. 27)
Protocol: Soluble FcγRIa and FcγRIIIa in both human and cynomolgus monkey were produced in the form of His-tagged molecules by methods known to those of ordinary skill in the art. […] Next, soluble FcγRIa or FcγRIIIa was injected with a running buffer (used as a reference solution), and was made to interact with the antibodies captured onto the sensor chip. HBS-EP+ (GE Healthcare) was used as the running buffer, and HBS-EP+ was also used to dilute the soluble FcγRIa or FcγRIIIa. […] All measurements were carried out at 20° C.

B1: H1009/L395-F1974m: H1009-F1974m (SEQ ID NO:36) heavy chain, L395-kOMT light chain; the anti-IL-8 antibody of Table 29 (antibody)
heavy: QVQLVESGGGLVQPGGSLRLSCAASGFTFSDYYLSWVRQAPGKGLEWVGLIRNKDNYHTPEYSASVKGRFTISRDDSKNSLYLTMSDLKTEDTAVYYCARENHRYDVELAYWGQGTLVTVSSASTKGPSVFPLAPSSKSTSGGTAALGCLVKDYFPEPVTVSWNSGALTSGVHTFPAVLQSSGLYSLSSVVTVPSSSLGTQTYICNVNHKPSNTKVDKKVEPKSCDKTHTCPPCPAPELRRGPSVFLFPPKPKDTLMISRTPEVTCVVVDVSHEDPEVKFNWYVDGVEVHNAKTKPREEQYNSTYRVVSVLTVLHQDWLNGKEYKCKVSNKGLPSSIEKTISKAKGQPREPQVYTLPPSREEMTKNQVSLTCLVKGFYPSDIAVEWESNGQPENNYKTTPPVLDSDGSFFLYSKLTVDKSRWQQGNVFSCSVLHEALHAHTTRKELSLSP
light: DIQMTQSPSSLSASVGDRVTITCRASEIIYSYLAWYQQKPGKAPKLLIYKAKTHADGVPSRFSGSGSGTDFTFTISSLQPEDIATYYCKHHFGFPRTFGQGTKVEIKRTVAAPSVFIFPPSDEQLKSGTASVVCLLNNFYPREAKVQWKVDNALQSGNSQESVTEQDSKDSTYSLSSTLTLSKADYEKHKVYACEVTHQGLSSPVTKSFNRGEC
**Q.** What does the source list for B1?
**A.** adhesion at incision site: Abdominal wall Median line (post-surgical adhesion): ○; adhesion at incision site: Peritoneum (L) (post-surgical adhesion): ○ and x; adhesion at incision site: Peritoneum (R) (post-surgical adhesion): ○ and x; adhesion at incision site: Uterus (post-surgical adhesion): ○ and x; binding to FcγRs (hFcγRIa, hFcγRIIIa, cynoFcγRIa, cynoFcγRIIIa) [1]: not to bind to any of the FcγRs
